In patent US20170334985A1 (Genentech, published 2017):

T1: human IL-17AA (human, UniProt Q16552 20-155, limits assumed)
T1 construct: Bought from R&D Systems, cat #317-ILB-050; also called IL-17A homodimer
T1 sequence: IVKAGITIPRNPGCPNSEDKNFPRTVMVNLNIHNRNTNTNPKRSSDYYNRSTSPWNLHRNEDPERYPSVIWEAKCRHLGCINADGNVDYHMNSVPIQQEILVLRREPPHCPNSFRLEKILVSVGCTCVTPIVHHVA

T2: cyno IL-17AA (cynomolgus monkey, UniProt A0A2K5TTB0 24-155)
T2 construct: Recombinant protein in the SPR assay; also called cynomolgus monkey IL-17AA; IL-17A homodimer (cynomolgus monkey)
T2 sequence: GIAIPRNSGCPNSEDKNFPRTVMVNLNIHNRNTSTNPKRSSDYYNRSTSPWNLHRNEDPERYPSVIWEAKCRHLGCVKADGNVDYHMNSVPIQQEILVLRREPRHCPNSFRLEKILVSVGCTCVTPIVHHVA

T3: cynomolgus monkey IL-13 (cynomolgus monkey, UniProt Q5I6E4 19-132 (Macaca thibetana entry), limits assumed)
T3 construct: also called cyno IL-13
T3 chain: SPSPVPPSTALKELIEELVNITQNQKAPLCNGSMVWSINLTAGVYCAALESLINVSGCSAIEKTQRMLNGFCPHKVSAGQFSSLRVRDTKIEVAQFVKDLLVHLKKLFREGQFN

T4: human IL-17FF (human, UniProt Q96PD4 31-163)
T4 sequence: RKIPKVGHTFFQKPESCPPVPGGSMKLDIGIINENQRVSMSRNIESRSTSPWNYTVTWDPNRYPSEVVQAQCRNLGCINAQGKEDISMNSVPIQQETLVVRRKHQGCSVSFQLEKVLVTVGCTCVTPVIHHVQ

T5: human IL-17AF heterodimer (human, UniProt Q16552 24-155; Q96PD4 31-163, limits assumed)
T5 sequence 1: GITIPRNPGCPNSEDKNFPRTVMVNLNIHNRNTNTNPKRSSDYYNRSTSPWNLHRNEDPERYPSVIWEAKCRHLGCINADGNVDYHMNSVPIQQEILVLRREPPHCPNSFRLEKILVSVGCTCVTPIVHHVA
T5 sequence 2: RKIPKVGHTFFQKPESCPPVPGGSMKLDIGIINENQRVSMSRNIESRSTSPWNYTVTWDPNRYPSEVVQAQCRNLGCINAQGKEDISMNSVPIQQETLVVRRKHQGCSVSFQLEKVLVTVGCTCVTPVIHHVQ


Tests used:
human IL-17AA = target: T1, human IL-17AA; assay: SPR (BIAcore T200), bispecific antibody captured by anti-human Fc on CM5 chip, cytokine injected, 25 C, 1:1 Langmuir model
Protocol: (§1) Binding affinities of anti-IL-17/anti-IL-13 bispecific antibody against various IL-17 cytokines were measured by Surface Plasmon Resonance (SRP) using a BIAcore™-T200 instrument. Anti-IL-17/anti-IL-13 bispecific antibody was captured by mouse anti-human Fc antibody (GE Healthcare, cat #BR-1008-39) coated on CM5 biosensor chips to achieve approximately 500 response units (RU). For kinetics measurements, five-fold serial dilutions (20 nM to 32 pM) of human IL-17AA (R&D Systems, cat #317-ILB-050), human IL-17AF heterodimer, human IL-17FF (R&D Systems, cat #1335-IL-025/CF), cyno IL-17AA, cyno IL-17AF, and cyno IL-17FF were injected in HBS-P buffer (GE Healthcare) at 25° C. with a flow rate of 30 μl/min. Association rates (kₒₙ) and dissociation rates (koff) were calculated using a simple one-to-one Langmuir binding model (BlAcore T200 Evaluation Software version 2.0). The equilibrium dissociation constant (KD) was calculated as the ratio koff/kₒₙ.

cyno IL-17AA = target: T2, cyno IL-17AA; assay: as above
Protocol: as §1

cynomolgus monkey IL-13 = target: T3, cynomolgus monkey IL-13; assay: SPR (BIAcore T200), antibody captured by anti-human Fc on CM5 chip, cytokine injected, 25 C, 1:1 Langmuir model
Protocol: (§2) Binding affinities of the anti-IL-17/anti-IL-13 bispecific antibody against human and cynomolgus monkey IL-13 cytokines were measured with a BIAcore™-T200 instrument. Anti-IL-13 antibody was captured by mouse anti-human Fc antibody (GE Healthcare, cat #BR-1008-39) coated on CM5 biosensor chips to achieve approximately 500 response units (RU). Four-fold serial dilutions (50 nM to 49 pM) of human IL-13, human IL-13R130Q (a common IL-13 variant associated with allergy and asthma, see Vladich et al., 2005, J. Clin Invest., 115:747-754), and cyno IL-13 were injected in FIBS-P buffer (GE Healthcare) at 25° C. with a flow rate of 30 μl/min. Association rates (kₒₙ) and dissociation rates (koff) were calculated using a simple one-to-one Langmuir binding model (BIAcore T200 Evaluation Software version 2.0). The equilibrium dissociation constant (KD) was calculated as the ratio koff/kₒₙ.

human IL-13 = target: T6, human IL-13 (human, UniProt P35225 35-146, limits assumed); assay: as above
T6 construct: also called recombinant human IL-13
Protocol: as §2

human IL-13 R130Q = target: T7, human IL-13 R130Q (human, UniProt P35225 35-146, limits assumed); assay: as above
T7 construct: Common IL-13 variant
Protocol: as §2

human IL-17FF = target: T4, human IL-17FF; assay: cell-based or functional assay
[1] = target: T5, human IL-17AF heterodimer; assay: cell-based or functional assay

T6 sequence (P35225 other isoform, or with tags, fused parts or gaps limits assumed): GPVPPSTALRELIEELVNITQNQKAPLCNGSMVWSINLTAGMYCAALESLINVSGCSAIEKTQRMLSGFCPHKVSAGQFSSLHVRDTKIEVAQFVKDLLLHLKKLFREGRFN
T7 sequence (P35225 35-146 limits assumed, stated change not applied): as the sequence (P35225 other isoform, or with tags, fused parts or gaps limits assumed) above, with R110Q counted along it

| Kd (human IL-17AA) | koff (human IL-17AA) | kon (human IL-17AA) | Kd (cyno IL-17AA) | koff (cyno IL-17AA) | kon (cyno IL-17AA) | Kd (cynomolgus monkey IL-13) | koff (cynomolgus monkey IL-13) | kon (cynomolgus monkey IL-13) | Kd (human IL-13) | koff (human IL-13) | kon (human IL-13) | Kd (human IL-13 R130Q) | koff (human IL-13 R130Q) | kon (human IL-13 R130Q) | IC90 (molar ratio), inhibition of IL-17FF-induced G-CSF expression in normal human foreskin fibroblasts (ELISA) (human IL-17FF) | IC90 (molar ratio), inhibition of IL-17AF-induced G-CSF expression in normal human foreskin fibroblasts (ELISA) [1] | Binder |
| --- | --- | --- | --- | --- | --- | --- | --- | --- | --- | --- | --- | --- | --- | --- | --- | --- | --- |
| 0.021 nM | 0.000118 s⁻¹ | 5.55e+06 M⁻¹ s⁻¹ | 0.033 nM | 0.000291 s⁻¹ | 8.89e+06 M⁻¹ s⁻¹ | < 0.001 nM | < 1e-06 s⁻¹ | > 1e+06 M⁻¹ s⁻¹ | 0.0355 nM | 2.07e-05 s⁻¹ | 584000 M⁻¹ s⁻¹ | < 0.001 nM | < 1e-06 s⁻¹ | 864000 M⁻¹ s⁻¹ | – | – | anti-IL-13/IL-17 bispecific antibody (bispecific antibody, human IgG4 S228P, Knobs-into-holes human IgG4; also called anti-IL-17/anti-IL-13 bispecific antibody; anti-IL-13/IL-17 IgG4 bispecific antibody) heavy 1: not shown VL 1: DIVLTQSPDSLSVSLGERATINCRASKSVDSYGNSFMHWYQQKPGQPPKLLIYLASNLESGVPDRFSGSGSGTDFTLTISSLQAEDVAVYYCQQNNEDPRTFGGGTKVEIKR heavy 2: EVQLVESGGGLVQPGRSLRLSCAASGFTFDDYAMHWVRQAPGKGLEWVSGINWSSGGIGYADSVKGRFTISRDNAKNSLYLQMNSLRAEDTALYYCARDIGGFGEFYWNFGLWGRGTLVTVSSASTKGPSVFPLAPCSRSTSESTAALGCLVKDYFPEPVTVSWNSGALTSGVHTFPAVLQSSGLYSLSSVVTVPSSSLGTKTYTCNVDHKPSNTKVDKRVESKYGPPCPPCPAPEFLGGPSVFLFPPKPKDTLMISRTPEVTCVVVDVSQEDPEVQFNWYVDGVEVHNAKTKPREEQFNSTYRVVSVLTVLHQDWLNGKEYKCKVSNKGLPSSIEKTISKAKGQPREPQVYTLPPSQEEMTKNQVSLSCAVKGFYPSDIAVEWESNGQPENNYKTTPPVLDSDGSFFLVSRLTVDKSRWQEGNVFSCSVMHEALHNHYTQKSLSLSLGK VL 2: not shown |
| – | – | – | – | – | – | – | – | – | – | – | – | – | – | – | ~1 molar ratio | ~1 molar ratio | Parental anti-IL17 antibody (antibody, V domains shown) VH: EVQLVESGGGLVQPGRSLRLSCAASGFTFDDYAMHWVRQAPGKGLEWVSGINWSSGGIGYADSVKGRFTISRDNAKNSLYLQMNSLRAEDTALYYCARDIGGFGEFYWNFGLWGRGTLVTVSS VL: not shown |
